# Values joined by “and” are separate entries in the source; they are usually repeats but may differ in a detail not shown here. Equal entries are not always repeated.
# Assays:
# [1] = target: Signal recognition particle 19kDa (human) (UniProt P09132)
# [2] = target: Ubiquitin-conjugating enzyme E2S (human) (UniProt Q16763)
# [3] = target: Calcium/calmodulin-dependent protein kinase II alpha (human) (UniProt Q9UQM7)
# [4] = target: NIMA (never in mitosis gene a)-related kinase 7 (human) (UniProt Q8TDX7)
# Chain of NIMA (never in mitosis gene a)-related kinase 7 (human) (Q8TDX7 whole entry): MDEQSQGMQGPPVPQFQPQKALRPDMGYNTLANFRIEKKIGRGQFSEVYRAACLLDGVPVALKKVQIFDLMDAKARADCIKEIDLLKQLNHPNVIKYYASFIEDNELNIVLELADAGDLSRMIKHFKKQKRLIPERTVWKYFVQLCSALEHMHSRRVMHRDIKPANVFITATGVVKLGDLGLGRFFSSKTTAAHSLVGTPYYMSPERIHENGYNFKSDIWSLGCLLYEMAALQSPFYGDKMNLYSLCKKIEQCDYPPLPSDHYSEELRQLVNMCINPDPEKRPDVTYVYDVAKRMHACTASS
# [5] = target: Piccolo (presynaptic cytomatrix protein) (human) (UniProt Q9Y6V0)
# Chain of Piccolo (presynaptic cytomatrix protein) (human) (Q9Y6V0 other isoform, or with tags, fused parts or gaps limits assumed): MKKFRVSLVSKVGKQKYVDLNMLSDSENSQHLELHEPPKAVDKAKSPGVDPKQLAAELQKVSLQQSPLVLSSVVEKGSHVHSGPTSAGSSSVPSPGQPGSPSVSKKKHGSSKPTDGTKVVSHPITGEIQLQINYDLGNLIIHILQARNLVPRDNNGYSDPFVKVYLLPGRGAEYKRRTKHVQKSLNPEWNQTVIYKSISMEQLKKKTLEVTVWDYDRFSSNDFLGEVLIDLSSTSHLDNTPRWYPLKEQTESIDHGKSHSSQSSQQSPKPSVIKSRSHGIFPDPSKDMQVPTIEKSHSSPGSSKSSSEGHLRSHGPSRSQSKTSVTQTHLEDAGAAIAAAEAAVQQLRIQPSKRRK
# [6] = target: Microtubule-associated protein 2 (human) (UniProt P11137)
# [7] = target: p 53-regulated DDA3 (DDA3)/proline/serine-rich coiled-coil 1 (human) (UniProt Q6PGN9)
# Chain of p 53-regulated DDA3 (DDA3)/proline/serine-rich coiled-coil 1 (human) (Q6PGN9 other isoform, or with tags, fused parts or gaps limits assumed): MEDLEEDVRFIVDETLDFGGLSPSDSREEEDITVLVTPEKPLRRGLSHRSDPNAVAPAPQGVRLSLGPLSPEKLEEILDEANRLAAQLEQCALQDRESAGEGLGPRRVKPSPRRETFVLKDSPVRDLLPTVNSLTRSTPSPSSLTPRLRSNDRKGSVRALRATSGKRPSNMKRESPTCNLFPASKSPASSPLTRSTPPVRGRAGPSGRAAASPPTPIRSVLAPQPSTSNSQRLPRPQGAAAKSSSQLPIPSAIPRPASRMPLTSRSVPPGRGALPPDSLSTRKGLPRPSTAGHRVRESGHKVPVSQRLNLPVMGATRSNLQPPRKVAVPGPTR
# [8] = target: Calcium channel, voltage-dependent, beta 1 subunit (human) (UniProt Q02641)
# [9] = target: RAD51 associated protein 1 (human) (UniProt Q96B01)
# [10] = target: Vaccinia related kinase 1 (human) (UniProt Q99986)
# Chain of Vaccinia related kinase 1 (human) (Q99986 whole entry): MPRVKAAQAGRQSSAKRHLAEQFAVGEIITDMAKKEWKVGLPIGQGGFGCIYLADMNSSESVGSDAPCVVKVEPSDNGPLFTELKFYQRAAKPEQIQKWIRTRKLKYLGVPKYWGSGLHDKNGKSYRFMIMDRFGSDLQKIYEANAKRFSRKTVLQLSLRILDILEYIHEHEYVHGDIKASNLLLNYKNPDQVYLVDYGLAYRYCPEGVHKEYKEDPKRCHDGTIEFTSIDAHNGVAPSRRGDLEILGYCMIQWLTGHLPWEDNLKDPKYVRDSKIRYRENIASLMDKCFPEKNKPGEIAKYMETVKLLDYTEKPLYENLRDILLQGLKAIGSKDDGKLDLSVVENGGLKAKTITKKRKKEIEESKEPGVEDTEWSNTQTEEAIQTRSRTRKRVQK
# [11] = target: Elongation factor 1 homolog (ELF1, S. cerevisiae) (human) (UniProt P60002)
# [12] = target: Checkpoint suppressor 1/Forkhead box N3 (human) (UniProt O00409)
# [13] = target: DIM1 dimethyladenosine transferase 1 homolog (S. cerevisiae) (human) (UniProt Q9UNQ2)
# [14] = target: Eukaryotic translation initiation factor 1 A, Y-linked (human) (UniProt O14602)
# Chain of Eukaryotic translation initiation factor 1 A, Y-linked (human) (O14602 whole entry): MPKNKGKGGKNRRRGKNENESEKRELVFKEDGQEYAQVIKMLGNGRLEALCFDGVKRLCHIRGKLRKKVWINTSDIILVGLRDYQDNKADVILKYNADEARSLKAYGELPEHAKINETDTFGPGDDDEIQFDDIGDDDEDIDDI
# [15] = target: WAS/WASL interacting protein family, member 1 (human) (UniProt O43516)
# Chain of WAS/WASL interacting protein family, member 1 (human) (O43516 whole entry): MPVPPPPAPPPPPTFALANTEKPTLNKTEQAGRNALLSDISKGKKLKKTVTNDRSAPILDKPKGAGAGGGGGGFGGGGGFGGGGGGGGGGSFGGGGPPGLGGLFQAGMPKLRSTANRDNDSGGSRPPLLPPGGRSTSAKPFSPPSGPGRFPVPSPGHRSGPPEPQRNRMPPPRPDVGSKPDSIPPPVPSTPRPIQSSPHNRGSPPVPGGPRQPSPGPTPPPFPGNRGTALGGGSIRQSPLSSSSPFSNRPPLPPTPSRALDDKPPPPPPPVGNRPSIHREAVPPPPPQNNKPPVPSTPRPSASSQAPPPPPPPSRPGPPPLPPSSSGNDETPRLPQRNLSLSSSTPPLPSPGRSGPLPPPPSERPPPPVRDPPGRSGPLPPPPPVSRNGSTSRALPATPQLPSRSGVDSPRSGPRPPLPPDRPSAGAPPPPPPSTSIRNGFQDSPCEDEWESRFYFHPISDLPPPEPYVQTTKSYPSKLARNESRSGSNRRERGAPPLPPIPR
# [16] = target: Choline kinase alpha (human) (UniProt P35790)
# Chain of Choline kinase alpha (human) (P35790 whole entry): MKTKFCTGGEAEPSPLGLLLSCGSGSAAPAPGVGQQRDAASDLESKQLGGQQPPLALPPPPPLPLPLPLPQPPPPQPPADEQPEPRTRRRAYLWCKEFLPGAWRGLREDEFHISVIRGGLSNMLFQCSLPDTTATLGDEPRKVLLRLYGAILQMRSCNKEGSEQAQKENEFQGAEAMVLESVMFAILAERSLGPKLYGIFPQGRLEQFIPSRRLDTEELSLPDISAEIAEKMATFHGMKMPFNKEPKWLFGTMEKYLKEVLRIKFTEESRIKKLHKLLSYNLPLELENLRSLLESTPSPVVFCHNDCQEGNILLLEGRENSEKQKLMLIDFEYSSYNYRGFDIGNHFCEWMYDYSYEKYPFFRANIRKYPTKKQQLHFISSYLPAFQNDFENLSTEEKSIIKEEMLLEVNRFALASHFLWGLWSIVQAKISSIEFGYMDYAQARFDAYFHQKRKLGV
# [17] = target: SLAIN motif family, member 2 (human) (UniProt Q9P270)
# [18] = target: WD repeat domain 5 (human) (UniProt P61964)
# [19] = target: CDKN2A interacting protein (human) (UniProt Q9NXV6)
# [20] = target: Additional sex combs like 1 (Drosophila) (human) (UniProt Q8IXJ9)
# Chain of Additional sex combs like 1 (Drosophila) (human) (Q8IXJ9 other isoform, or with tags, fused parts or gaps limits assumed): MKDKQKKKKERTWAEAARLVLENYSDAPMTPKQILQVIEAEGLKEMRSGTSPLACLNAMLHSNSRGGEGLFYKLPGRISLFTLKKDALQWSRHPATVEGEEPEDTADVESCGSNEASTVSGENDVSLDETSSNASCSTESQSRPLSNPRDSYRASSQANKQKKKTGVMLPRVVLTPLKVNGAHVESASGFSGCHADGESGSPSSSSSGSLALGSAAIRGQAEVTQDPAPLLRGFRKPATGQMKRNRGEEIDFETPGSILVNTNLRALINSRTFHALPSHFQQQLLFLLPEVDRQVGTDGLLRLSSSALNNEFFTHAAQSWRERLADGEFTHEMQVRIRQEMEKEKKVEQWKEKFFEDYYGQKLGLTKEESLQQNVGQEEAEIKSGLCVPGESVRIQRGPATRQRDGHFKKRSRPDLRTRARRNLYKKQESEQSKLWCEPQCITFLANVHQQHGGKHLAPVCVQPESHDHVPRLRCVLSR
# [21] = target: Aurora kinase A (human) (UniProt O14965)
# Chain of Aurora kinase A (human) (O14965 whole entry): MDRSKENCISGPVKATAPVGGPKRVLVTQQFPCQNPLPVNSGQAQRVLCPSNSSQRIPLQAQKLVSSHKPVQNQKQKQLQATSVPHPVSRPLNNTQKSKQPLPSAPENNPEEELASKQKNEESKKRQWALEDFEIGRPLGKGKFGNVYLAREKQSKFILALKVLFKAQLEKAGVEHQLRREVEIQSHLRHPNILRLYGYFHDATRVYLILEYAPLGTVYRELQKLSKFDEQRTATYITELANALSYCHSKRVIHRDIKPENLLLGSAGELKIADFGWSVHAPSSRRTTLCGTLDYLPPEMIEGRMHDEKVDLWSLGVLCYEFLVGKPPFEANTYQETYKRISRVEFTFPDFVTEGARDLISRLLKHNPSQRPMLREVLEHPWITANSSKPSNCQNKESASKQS
# [22] = target: Cyclin B3 (human) (UniProt Q8WWL7)
# Chain of Cyclin B3 (human) (Q8WWL7 1-111 limits assumed): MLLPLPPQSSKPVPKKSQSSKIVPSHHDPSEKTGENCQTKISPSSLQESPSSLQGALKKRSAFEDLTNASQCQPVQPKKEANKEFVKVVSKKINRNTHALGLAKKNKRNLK
# [23] = target: Immunoglobulin (CD79A) binding protein 1 (human) (UniProt P78318)
# [24] = target: Rtf1, Paf1/RNA polymerase II complex component, homolog (S. cerevisiae) (human) (UniProt Q92541)
# [25] = target: Nuclear speckle splicing regulatory protein 1 (human) (UniProt Q9H0G5)
# [26] = target: Potassium channel tetramerisation domain containing 18 (human) (UniProt Q6PI47)
# Chain of Potassium channel tetramerisation domain containing 18 (human) (Q6PI47 whole entry, the tested form may be a part): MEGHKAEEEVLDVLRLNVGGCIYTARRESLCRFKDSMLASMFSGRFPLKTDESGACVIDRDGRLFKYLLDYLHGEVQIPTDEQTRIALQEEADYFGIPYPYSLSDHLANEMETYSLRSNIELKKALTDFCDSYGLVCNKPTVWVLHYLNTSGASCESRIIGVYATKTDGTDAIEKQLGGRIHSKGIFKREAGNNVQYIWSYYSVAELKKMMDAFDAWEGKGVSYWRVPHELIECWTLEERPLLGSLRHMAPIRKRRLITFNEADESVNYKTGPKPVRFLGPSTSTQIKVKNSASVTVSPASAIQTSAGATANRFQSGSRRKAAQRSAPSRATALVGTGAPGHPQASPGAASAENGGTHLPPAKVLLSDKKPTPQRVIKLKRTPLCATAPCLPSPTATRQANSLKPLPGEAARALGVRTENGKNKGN
# [27] = target: Protein kinase C, iota (human) (UniProt P41743)
# [28] = target: AF4/FMR2 family, member 4 (human) (UniProt Q9UHB7)
# [29] = target: Cortactin (human) (UniProt Q14247)
# [30] = target: Eukaryotic translation initiation factor 1 A, X-linked (human) (UniProt P47813)
# Chain of Eukaryotic translation initiation factor 1 A, X-linked (human) (P47813 whole entry): as the sequence (O14602 whole entry) above, with L50M counted along it
# Chain of Signal recognition particle 19kDa (human) (P09132 whole entry): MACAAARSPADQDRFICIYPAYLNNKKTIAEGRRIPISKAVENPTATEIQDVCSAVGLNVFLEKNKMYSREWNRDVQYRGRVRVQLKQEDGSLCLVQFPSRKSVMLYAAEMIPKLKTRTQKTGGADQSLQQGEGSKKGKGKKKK
# Chain of Calcium/calmodulin-dependent protein kinase II alpha (human) (Q9UQM7 whole entry): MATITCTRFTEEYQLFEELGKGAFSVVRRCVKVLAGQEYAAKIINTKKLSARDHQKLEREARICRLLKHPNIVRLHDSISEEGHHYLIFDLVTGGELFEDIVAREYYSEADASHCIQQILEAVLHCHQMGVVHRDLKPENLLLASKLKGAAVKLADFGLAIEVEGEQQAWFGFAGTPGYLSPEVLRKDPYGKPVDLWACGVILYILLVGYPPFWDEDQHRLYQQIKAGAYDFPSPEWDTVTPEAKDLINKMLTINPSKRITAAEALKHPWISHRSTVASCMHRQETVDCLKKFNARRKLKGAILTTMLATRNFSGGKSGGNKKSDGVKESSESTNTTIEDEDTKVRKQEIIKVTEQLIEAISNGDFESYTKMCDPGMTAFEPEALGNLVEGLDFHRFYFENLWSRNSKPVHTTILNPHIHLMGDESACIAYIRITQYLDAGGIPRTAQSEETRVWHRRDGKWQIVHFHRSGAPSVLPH
substance,measurement,setting,value
biotinylated full-length Dengue virus capsid (DENV C) protein,Signal Intensity,[1],972 and 818
same,Z-score,[1],3.73 and 3.02
same,Signal Intensity,[2],1350
same,Z-score,[2],5.49
same,Signal Intensity,[3],969
same,Z-score,[3],3.72
same,Signal Intensity,[4],918
same,Z-score,[4],3.49
same,Signal Intensity,[5],929
same,Z-score,[5],3.53
same,Signal Intensity,[6],875
same,Z-score,[6],3.29
same,Signal Intensity,[7],822
same,Z-score,[7],3.04
same,Signal Intensity,[8],1020
same,Z-score,[8],3.94
same,Signal Intensity,[9],1140
same,Z-score,[9],4.52
same,Signal Intensity,[10],845
same,Z-score,[10],3.15
same,Signal Intensity,[11],816
same,Z-score,[11],3.02
same,Signal Intensity,[12],918
same,Z-score,[12],3.48
same,Signal Intensity,[13],1670
same,Z-score,[13],6.93
same,Signal Intensity,[14],852
same,Z-score,[14],3.18
same,Signal Intensity,[15],1160
same,Z-score,[15],4.59
same,Signal Intensity,[16],1740
same,Z-score,[16],7.26
same,Signal Intensity,[17],2570
same,Z-score,[17],11.1
same,Signal Intensity,[18],840
same,Z-score,[18],3.13
same,Signal Intensity,[19],1030
same,Z-score,[19],4.01
same,Signal Intensity,[20],1070
same,Z-score,[20],4.19
same,Signal Intensity,[21],1160
same,Z-score,[21],4.59
same,Signal Intensity,[22],854
same,Z-score,[22],3.19
same,Signal Intensity,[23],1940
same,Z-score,[23],8.18
same,Signal Intensity,[24],882
same,Z-score,[24],3.32
same,Signal Intensity,[25],928
same,Z-score,[25],3.53
same,Signal Intensity,[26],856
same,Z-score,[26],3.2
same,Signal Intensity,[27],841
same,Z-score,[27],3.13
same,Signal Intensity,[28],1250
same,Z-score,[28],5.02
same,Signal Intensity,[29],3080
same,Z-score,[29],13.4
biotinylated full-length Dengue virus capsid (DENV C) protein (other; other documents disagree on this pair),Signal Intensity,[30],997
same,Z-score,[30],3.85

# From US20170158742A1
